Blank lines part the entries; values can stand above or below the binder they belong to.
Legend:
Test in all cases: two-hybrid library CCNG1;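 note: natural log of median RNA to DNA barcode read ratio; higher means stronger binding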
4H3189-bH = target: T1, 4H3189-bH
T1 chain: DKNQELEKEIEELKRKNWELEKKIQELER

4H3606-bH = target: T2, 4H3606-bH
T2 chain: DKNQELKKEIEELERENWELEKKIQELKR

4H370-bH = target: T3, 4H370-bH
T3 chain: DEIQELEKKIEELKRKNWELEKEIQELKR

4H331-bH = target: T4, 4H331-bH
T4 chain: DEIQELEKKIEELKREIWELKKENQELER

4H883-bH = target: T5, 4H883-bH
T5 chain: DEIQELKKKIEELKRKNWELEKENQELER

4H462-bH = target: T6, 4H462-bH
T6 chain: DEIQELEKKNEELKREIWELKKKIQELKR

4H3843-bH = target: T7, 4H3843-bH
T7 chain: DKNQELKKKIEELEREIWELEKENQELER

4H72-bH = target: T8, 4H72-bH
T8 chain: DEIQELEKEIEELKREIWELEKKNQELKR

4H953-bH = target: T9, 4H953-bH
T9 chain: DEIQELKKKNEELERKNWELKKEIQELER

4H918-bH = target: T10, 4H918-bH
T10 chain: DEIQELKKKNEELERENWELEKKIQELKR

4H568-bH = target: T11, 4H568-bH
T11 chain: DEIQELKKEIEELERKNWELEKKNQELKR

4H4001-bH = target: T12, 4H4001-bH
T12 chain: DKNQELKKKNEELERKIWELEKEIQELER

4H797-bH = target: T13, 4H797-bH
T13 chain: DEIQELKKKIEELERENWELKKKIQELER

4H687-bH = target: T14, 4H687-bH
T14 chain: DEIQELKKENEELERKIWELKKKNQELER

4H3782-bH = target: T15, 4H3782-bH
T15 chain: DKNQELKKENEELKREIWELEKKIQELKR

4H607-bH = target: T16, 4H607-bH
T16 chain: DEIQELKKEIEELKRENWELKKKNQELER

4H850-bH = target: T17, 4H850-bH
T17 chain: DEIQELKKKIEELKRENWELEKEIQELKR

4H584-bH = target: T18, 4H584-bH
T18 chain: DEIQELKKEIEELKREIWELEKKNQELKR

4H906-bH = target: T19, 4H906-bH
T19 chain: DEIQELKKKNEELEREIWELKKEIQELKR

4H570-bH = target: T20, 4H570-bH
T20 chain: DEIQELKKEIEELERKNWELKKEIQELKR

4H3631-bH = target: T21, 4H3631-bH
T21 chain: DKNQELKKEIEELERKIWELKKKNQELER

4H3974-bH = target: T22, 4H3974-bH
T22 chain: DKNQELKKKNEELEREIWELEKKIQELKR

4H3817-bH = target: T23, 4H3817-bH
T23 chain: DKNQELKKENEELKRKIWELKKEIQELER

4H619-bH = target: T24, 4H619-bH
T24 chain: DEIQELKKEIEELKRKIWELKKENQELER

4H683-bA = target: T25, 4H683-bA
T25 chain: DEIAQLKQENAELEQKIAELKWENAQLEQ

4H3638-bH = target: T26, 4H3638-bH
T26 chain: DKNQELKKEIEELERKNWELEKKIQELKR

4H3414-bH = target: T27, 4H3414-bH
T27 chain: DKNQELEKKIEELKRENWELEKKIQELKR

4H3364-bH = target: T28, 4H3364-bH
T28 chain: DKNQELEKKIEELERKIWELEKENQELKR

4H730-bH = target: T29, 4H730-bH
T29 chain: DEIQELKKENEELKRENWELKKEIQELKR

4H949-bH = target: T30, 4H949-bH
T30 chain: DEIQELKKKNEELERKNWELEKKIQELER

4H3381-bH = target: T31, 4H3381-bH
T31 chain: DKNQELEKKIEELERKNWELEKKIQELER

4H349-bH = target: T32, 4H349-bH
T32 chain: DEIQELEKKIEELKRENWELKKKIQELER

O5-bP = target: T33, O5-bP
T33 chain: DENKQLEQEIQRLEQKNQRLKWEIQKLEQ

4H932-bH = target: T34, 4H932-bH
T34 chain: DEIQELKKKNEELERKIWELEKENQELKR

4H796-bH = target: T35, 4H796-bH
T35 chain: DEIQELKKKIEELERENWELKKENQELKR

O16-bN = target: T36, O16-bN
T36 chain: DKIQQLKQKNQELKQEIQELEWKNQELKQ

4H56-bH = target: T37, 4H56-bH
T37 chain: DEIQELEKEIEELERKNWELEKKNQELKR

4H883-bA = target: T38, 4H883-bA
T38 chain: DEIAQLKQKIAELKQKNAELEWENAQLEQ

4H3782-bA = target: T39, 4H3782-bA
T39 chain: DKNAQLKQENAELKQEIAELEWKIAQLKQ

4H717-bA = target: T40, 4H717-bA
T40 chain: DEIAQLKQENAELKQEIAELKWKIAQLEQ

4H797-bA = target: T41, 4H797-bA
T41 chain: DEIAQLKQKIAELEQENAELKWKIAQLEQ

4H953-bA = target: T42, 4H953-bA
T42 chain: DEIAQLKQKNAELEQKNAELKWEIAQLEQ

P9A-bA = target: T43, P9A-bA
T43 chain: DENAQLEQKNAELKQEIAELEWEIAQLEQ

4H754-bA = target: T44, 4H754-bA
T44 chain: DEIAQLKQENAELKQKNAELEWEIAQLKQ

4H918-bA = target: T45, 4H918-bA
T45 chain: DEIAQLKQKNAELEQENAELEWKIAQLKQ

4H4001-bA = target: T46, 4H4001-bA
T46 chain: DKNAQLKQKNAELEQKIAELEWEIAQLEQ

4H687-bA = target: T47, 4H687-bA
T47 chain: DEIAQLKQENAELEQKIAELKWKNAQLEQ

4H3427-bA = target: T48, 4H3427-bA
T48 chain: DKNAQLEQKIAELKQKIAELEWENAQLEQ

4H454-bA = target: T49, 4H454-bA
T49 chain: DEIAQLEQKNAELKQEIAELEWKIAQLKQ

4H338-bA = target: T50, 4H338-bA
T50 chain: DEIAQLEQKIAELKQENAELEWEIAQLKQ

4H3855-bA = target: T51, 4H3855-bA
T51 chain: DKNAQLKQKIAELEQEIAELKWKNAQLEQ

4H967-bA = target: T52, 4H967-bA
T52 chain: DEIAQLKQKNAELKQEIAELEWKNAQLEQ

4H568-bA = target: T53, 4H568-bA
T53 chain: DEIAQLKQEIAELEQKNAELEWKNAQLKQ

4H72-bA = target: T54, 4H72-bA
T54 chain: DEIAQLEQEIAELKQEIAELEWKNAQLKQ

4H3354-bA = target: T55, 4H3354-bA
T55 chain: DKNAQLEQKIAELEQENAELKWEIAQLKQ

4H908-bA = target: T56, 4H908-bA
T56 chain: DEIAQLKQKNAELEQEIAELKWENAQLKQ

4H607-bA = target: T57, 4H607-bA
T57 chain: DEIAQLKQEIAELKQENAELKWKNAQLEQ

interaction score (4H3189-bH): 0.907
interaction score (4H3606-bH): -0.801
interaction score (4H370-bH): -0.165
interaction score (4H331-bH): -0.227
interaction score (4H883-bH): -0.365
interaction score (4H462-bH): -0.167
interaction score (4H3843-bH): -0.157
interaction score (4H72-bH): -0.107
interaction score (4H953-bH): 0.375
interaction score (4H918-bH): -0.173
interaction score (4H568-bH): -0.408
interaction score (4H4001-bH): -0.0803
interaction score (4H797-bH): -0.148
interaction score (4H687-bH): -0.776
interaction score (4H3782-bH): -0.496
interaction score (4H607-bH): -2.19
Binder: DKNQELEKEIEELKRKNWELEKKIQELER [4H3189-bH]

interaction score (4H850-bH): 0.00973
interaction score (4H584-bH): -0.695
interaction score (4H906-bH): -0.25
interaction score (4H570-bH): 0.846
interaction score (4H3631-bH): 0.689
interaction score (4H3974-bH): 0.33
interaction score (4H3817-bH): 0.48
interaction score (4H619-bH): 0.721
interaction score (4H683-bA): 0.0371
interaction score (4H3638-bH): -1.45
interaction score (4H3414-bH): 0.938
Binder: DKNQELEKKIEELKRENWELEKKIQELKR [4H3414-bH]

interaction score (4H3364-bH): 1.55
interaction score (4H730-bH): -0.811
interaction score (4H949-bH): 0.153
interaction score (4H3381-bH): 0.55
interaction score (4H349-bH): -0.118
interaction score (O5-bP): 0.546
interaction score (4H932-bH): -0.252
interaction score (4H796-bH): -0.523
interaction score (O16-bN): 0.622
interaction score (4H56-bH): -0.464
Binder: DKNQELEKKIEELERKIWELEKENQELKR [4H3364-bH]

interaction score (4H850-bH): -1.94
interaction score (4H584-bH): -0.0526
interaction score (4H906-bH): -1.74
interaction score (4H570-bH): -1.5
interaction score (4H3631-bH): 1.13
interaction score (4H3974-bH): 0.292
interaction score (4H953-bH): 0.206
interaction score (4H3817-bH): 0.637
interaction score (4H619-bH): 0.647
interaction score (4H3638-bH): 0.578
Binder: DKNQELKKEIEELERKIWELKKKNQELER [4H3631-bH]

interaction score (4H883-bA): -0.0506
interaction score (4H3782-bA): -0.851
interaction score (4H717-bA): -0.712
interaction score (4H797-bA): -1.14
interaction score (4H953-bA): -0.675
interaction score (P9A-bA): -1.59
interaction score (4H754-bA): -0.511
interaction score (4H918-bA): -0.0912
interaction score (4H4001-bA): -0.362
interaction score (4H687-bA): 0.42
interaction score (4H3427-bA): -0.0236
interaction score (4H454-bA): -1.24
interaction score (4H338-bA): 0.149
interaction score (4H3855-bA): -0.492
interaction score (4H967-bA): -0.407
interaction score (4H568-bA): -1.07
interaction score (4H72-bA): -0.822
interaction score (4H3354-bA): 1.66
interaction score (4H908-bA): -1.17
interaction score (4H607-bA): -0.0475
Binder: DKNAQLEQKIAELEQENAELKWEIAQLKQ [4H3354-bA]

Reference: paper PMC10397247
